# Measurements reported in publication PMC10338343, “Relaxed targeting rules help PIWI proteins silence transposons”.
# Target: MIWI (Mus musculus, UniProt Q9JMB7 1-862)
# Test: double-filter binding; piRNA-1 guide; 3.5 mM Mg2+; RBNS: 25 mM HEPES-KOH pH 7.9, 110 mM KOAc, 3.5 mM MgOAc, 0.01% Triton X-100, 2 mM DTT, 10% glycerol, 2.5 mg/ml BSA, 0.5 mg/ml yeast tRNA, 100 nM RNA library, 33 C 2 h; double-filter: 30 mM HEPES-KOH pH 7.5, 120 mM KOAc, 3.5 mM MgOAc, 2 mM DTT, 0.01% Triton X-100, 0.1 nM target, 33 C 2 h
# Conditions: protein: recombinant, tags: SNAP, 3xFlag, label: 5' 32P
# MIWI, sequence (Q9JMB7 whole entry): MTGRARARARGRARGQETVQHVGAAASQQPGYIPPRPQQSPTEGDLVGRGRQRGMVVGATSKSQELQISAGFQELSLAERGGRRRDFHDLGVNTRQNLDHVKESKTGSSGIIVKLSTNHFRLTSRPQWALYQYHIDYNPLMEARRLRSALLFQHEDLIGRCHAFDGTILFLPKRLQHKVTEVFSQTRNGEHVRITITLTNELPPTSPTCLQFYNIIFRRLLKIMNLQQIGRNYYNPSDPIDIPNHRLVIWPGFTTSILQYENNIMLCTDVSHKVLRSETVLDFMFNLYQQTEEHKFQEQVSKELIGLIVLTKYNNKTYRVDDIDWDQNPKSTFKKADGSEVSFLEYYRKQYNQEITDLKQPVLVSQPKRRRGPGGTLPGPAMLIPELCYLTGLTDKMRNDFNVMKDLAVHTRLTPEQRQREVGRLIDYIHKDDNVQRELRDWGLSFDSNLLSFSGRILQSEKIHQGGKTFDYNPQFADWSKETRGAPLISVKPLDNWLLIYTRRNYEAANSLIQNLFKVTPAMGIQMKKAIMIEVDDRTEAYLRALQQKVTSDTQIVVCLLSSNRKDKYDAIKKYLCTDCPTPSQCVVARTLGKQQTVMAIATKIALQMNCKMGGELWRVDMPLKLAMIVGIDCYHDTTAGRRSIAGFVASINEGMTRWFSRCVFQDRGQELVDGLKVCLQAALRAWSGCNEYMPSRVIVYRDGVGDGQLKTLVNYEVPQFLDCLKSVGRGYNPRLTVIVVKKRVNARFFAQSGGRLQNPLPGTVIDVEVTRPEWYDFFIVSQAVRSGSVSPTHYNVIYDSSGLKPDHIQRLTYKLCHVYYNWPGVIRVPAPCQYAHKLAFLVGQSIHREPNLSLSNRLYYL
Binder,Kd (target pairs to guide g2-g10) [nM],Kd (target pairs to guide g8-g16) [nM]
"AAAAAAAAAAAAAAAAAAAAUACUACCUCA (ssRNA, 5' monophosphate) [piRNA-1 g2-g10 target]",0.014 ± 0.009,–
"AAAAAAAAAAAAAAACAACCUACAAAAAAA (ssRNA, 5' monophosphate) [piRNA-1 g8-g16 target]",–,0.08 ± 0.02
